Measured values reported in article PMC7991746.

Tests used:
[1] = molecular target: DUSP3-C124S mutant (phosphatase dead) (UniProt P51452); experiment: SPR; Biacore T100; DUSP3-WT or DUSP3-C124S immobilised on CM5 sensorchip (200 RU); protein analytes 12.5-1,000 nM; kinetic assays at 25°C, HBS-EP buffer, 10 μl/min, 120 s association, 300 s dissociation; three independent experiments
[2] = molecular target: DUSP3-WT (dual-specificity phosphatase 3) (UniProt P51452); experiment: as above
[3] = molecular target: dual-specificity phosphatase 3 (DUSP3), wild type (UniProt P51452); experiment: SPR; Biacore T100; DUSP3-WT or DUSP3-C124S immobilised on CM5 sensorchip (200 RU); analytes 12.5 to 1,000 nM; 25°C; HBS-EP buffer; association 120 s, dissociation 300 s, 10 μl/min
Chain of dual-specificity phosphatase 3 (DUSP3), wild type (P51452 whole entry): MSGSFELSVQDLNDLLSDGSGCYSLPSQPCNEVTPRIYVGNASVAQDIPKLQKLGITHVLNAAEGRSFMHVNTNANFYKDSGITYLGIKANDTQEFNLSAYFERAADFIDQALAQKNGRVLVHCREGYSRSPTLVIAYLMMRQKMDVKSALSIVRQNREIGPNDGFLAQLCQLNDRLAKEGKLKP

Chain of DUSP3-WT (dual-specificity phosphatase 3) (P51452 whole entry): as above
Chain of DUSP3-C124S mutant (phosphatase dead) (P51452 whole entry C124S): as the sequence (P51452 whole entry) above, with C124S counted along it

“NPM full length (nucleophosmin) (natural protein)” showed a Kd [1] of 0.0115 µM and a Kd [2] of 0.0172 µM.

With “nucleophosmin (NPM) full length (natural protein)” the fold higher affinity than ERK1 [3] was 10 fold and the fold higher affinity than NPM 9-122 [3] was 17 fold.

“truncated N-terminal of NPM 9-122 (domain or fragment)” gave a Kd [1] of 0.393 µM and a Kd [2] of 0.294 µM.
